Results published in US20150037348A1 (AbbVie / Abbott, published 2015).
Where “and” joins values, the source holds several entries; their conditions need not be identical. Equal values may be shown once. Read-outs that look alike come from different tables or passages of the source.

T1: recombinant human IL-12 (rhIL-12) (human, UniProt P29459 23-219; P29460 23-328)
T1 sequence (looked up) 1: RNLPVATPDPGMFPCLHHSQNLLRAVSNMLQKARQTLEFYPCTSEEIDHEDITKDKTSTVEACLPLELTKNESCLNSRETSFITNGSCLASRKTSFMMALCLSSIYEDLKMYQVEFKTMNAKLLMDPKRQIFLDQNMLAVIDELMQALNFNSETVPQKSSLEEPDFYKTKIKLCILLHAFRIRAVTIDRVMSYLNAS
T1 sequence (looked up) 2: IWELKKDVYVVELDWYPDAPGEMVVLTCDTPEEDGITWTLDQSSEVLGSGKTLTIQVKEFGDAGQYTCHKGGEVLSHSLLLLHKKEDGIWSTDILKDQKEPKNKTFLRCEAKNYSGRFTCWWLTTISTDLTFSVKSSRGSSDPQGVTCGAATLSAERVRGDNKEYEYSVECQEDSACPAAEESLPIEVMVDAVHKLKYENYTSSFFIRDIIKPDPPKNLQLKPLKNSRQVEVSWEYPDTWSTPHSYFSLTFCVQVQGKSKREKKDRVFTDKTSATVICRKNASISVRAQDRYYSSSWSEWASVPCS

T2: human interleukin 12 (p70 heterodimer of p35 and p40) (human, UniProt P29459 23-219; P29460 23-328)
T2 construct: Recombinant human IL-12; p35 and p40 linked by a disulfide bridge; also called hIL-12; IL-12
T2 sequence (looked up) 1: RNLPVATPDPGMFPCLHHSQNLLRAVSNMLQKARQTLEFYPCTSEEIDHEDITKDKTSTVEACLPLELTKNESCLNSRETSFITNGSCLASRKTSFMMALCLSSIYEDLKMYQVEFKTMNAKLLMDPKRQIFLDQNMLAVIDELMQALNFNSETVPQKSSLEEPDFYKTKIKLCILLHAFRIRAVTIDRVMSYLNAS
T2 sequence (looked up) 2: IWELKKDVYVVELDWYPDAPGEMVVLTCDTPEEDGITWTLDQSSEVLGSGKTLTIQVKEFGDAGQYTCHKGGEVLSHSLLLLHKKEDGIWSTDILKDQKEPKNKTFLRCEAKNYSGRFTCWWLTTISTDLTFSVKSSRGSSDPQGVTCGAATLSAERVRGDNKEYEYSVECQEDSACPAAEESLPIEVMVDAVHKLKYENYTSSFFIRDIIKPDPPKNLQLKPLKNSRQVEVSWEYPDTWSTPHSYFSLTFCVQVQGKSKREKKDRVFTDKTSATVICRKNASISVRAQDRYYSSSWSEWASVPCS


Assays:
[1] = target: T1, recombinant human IL-12 (rhIL-12); assay: cell-based or functional assay
[2] = target: T1, recombinant human IL-12 (rhIL-12); assay: cell-based or functional assay; remark: listed apart in the source
[3] = target: T1, recombinant human IL-12 (rhIL-12); assay: receptor binding assay, 125I-hIL-12 on PHA blasts
Description: PHA blast cells isolated as described above, were washed once and resuspended in binding buffer to a cell density of 2×10⁷ cells/ml. […] The cell pellet was examined for cell bound radioactivity using a gamma counter. […] Incubations were carried out in duplicate.

[4] = target: T1, recombinant human IL-12 (rhIL-12); assay: BIAcore SPR
[5] = target: T1, recombinant human IL-12 (rhIL-12); assay: cell-based or functional assay; remark: listed apart in the source
[6] = target: T2, human interleukin 12 (p70 heterodimer …); assay: BIAcore
[7] = target: T2, human interleukin 12 (p70 heterodimer …); assay: BIAcore; remark: listed apart in the source
[8] = target: T2, human interleukin 12 (p70 heterodimer …); assay: BIAcore; remark: listed apart in the source
[9] = target: T2, human interleukin 12 (p70 heterodimer …); assay: BIAcore; remark: listed apart in the source
[10] = target: T2, human interleukin 12 (p70 heterodimer …); assay: BIAcore; remark: listed apart in the source
[11] = target: T2, human interleukin 12 (p70 heterodimer …); assay: BIAcore; remark: listed apart in the source
[12] = target: T2, human interleukin 12 (p70 heterodimer …); assay: BIAcore; remark: listed apart in the source

Row | Binder | IC50 (M), bioassay, Human IL-12 Purified [1] [M] | PHA assay IC50 (M) p70:p40 1:0 [2] [M] | PHA assay IC50 (M) p70:p40 1:50 [2] [M] | IC50 [3] [nM] | koff [4] [s⁻¹] | PHA assay IC50 [5] [nM] | koff [6] | koff [7] | koff [8] | koff [9] | koff [10] | koff [11] | koff [12] [s⁻¹] | IFN gamma IC50 [5] [nM]
1 | Y61 IgG (antibody, V domains shown, whole IgG1; also called Y61-IgG1) VH: QVQLVQSGGGVVQPGRSLRLSCAASGFTFSSYGMHWVRQAPGKGLEWVAFIRYDGSNKYYADSVKGRFTISRDNSKNTLYLQMKSLRAEDTAVYYCKTHGSHDNWGQGTMVTVSS VL: SYVLTQPPSVSGTPGQRVTISCSGGRSWIGSNTVKWYQQLPGTAPKLLIYGNDQRPSGVPDRFSGSKSGTSASLAITGVQAEDEADYYCQSYDRGTHPALLFGTGTKVTVLG | 1.7e-10 | 1.8e-10 | 1.8e-10 | 0.016 | 0.00015 | 0.13 | – | – | – | – | – | – | – | –
2 | Y61 scFv (scFv, V domains shown, Single chain Fv; also called clone Y61) VH: QVQLVQSGGGVVQPGRSLRLSCAASGFTFSSYGMHWVRQAPGKGLEWVAFIRYDGSNKYYADSVKGRFTISRDNSKNTLYLQMKSLRAEDTAVYYCKTHGSHDNWGQGTMVTVSS VL: SYVLTQPPSVSGTPGQRVTISCSGGRSWIGSNTVKWYQQLPGTAPKLLIYGNDQRPSGVPDRFSGSKSGTSASLAITGVQAEDEADYYCQSYDRGTHPALLFGTGTKVTVLG | – | – | – | – | – | – | 0.000385 s⁻¹ and 0.00031 s⁻¹ | 0.000215 s⁻¹ and 0.000297 s⁻¹ | 0.000249 s⁻¹ and 0.000168 s⁻¹ and 0.000337 s⁻¹ and 0.000178 s⁻¹ | 0.000204 s⁻¹ and 0.000206 s⁻¹ and 0.000151 s⁻¹ and 0.000178 s⁻¹ | 0.000259 s⁻¹ and 0.000199 s⁻¹ and 0.000256 s⁻¹ | 0.000211 s⁻¹ and 0.000229 s⁻¹ and 0.000241 s⁻¹ | 0.000403 | –
3 | AO3 IgG1 (antibody, V domains shown, IgG1) VH: QVQLVQSGGGVVQPGRSLRLSCAASGFTFSSYGMHWVRQAPGKGLEWVAFIRYDGSNKYYADSVKGRFTISRDNSKNTLYLQMKSLRAEDTAVYYCKTHGSHDNWGQGTMVTVSS VL: SYVLTQPPSVSGTPGQRVTISCSGGRSNIGSNTVKWYQQLPGTAPKLLIYGNDQRPSGVPDRFSGSKSGTSASLAITGVQAEDEADYYCQSYDRGTHPLTMFGTGTKVTVLG | – | 2.5e-10 | 2.2e-10 | 0.029 | 0.000304 | 0.38 | – | – | – | – | – | – | – | –

More lines, in order of falling IC50 [3], values ahead:

Row | IC50 (M), bioassay, Human IL-12 Purified [1] [M] | PHA assay IC50 (M) p70:p40 1:0 [2] [M] | PHA assay IC50 (M) p70:p40 1:50 [2] [M] | IC50 [3] [nM] | koff [4] [s⁻¹] | PHA assay IC50 [5] [nM] | koff [6] | koff [7] | koff [8] | koff [9] | koff [10] | koff [11] | koff [12] [s⁻¹] | IFN gamma IC50 [5] [nM] | Binder
4 | – | – | – | 0.035 | 0.00025 | 0.175 | – | – | – | – | – | – | – | – | AO3 IgG germline (antibody, V domains shown, IgG with germline frameworks as named; only the CDR3s are tied to it) VH: QVQLVESGGGVVQPGRSLRLSCAASGFTFSSYGMHWVRQAPGKGLEWVAFIRYDGSNKYYADSVKGRFTISRDNSKNTLYLQMNSLRAEDTAVYYCKTHGSHDNWGQGTMVTVSS VL: QSVLTQPPSVSGAPGQRVTISCSGSRSNIGSNTVKWYQQLPGTAPKLLIYGNDQRPSGVPDRFSGSKSGTSASLAITGLQAEDEADYYCQSYDRGTHPLTMFGTGTKVTVL
5 | – | – | – | 0.016 | 0.00015 | 0.13 | – | – | – | – | – | – | – | 0.16 | Y61 IgG germline (antibody, V domains shown) VH: QVQLVESGGGVVQPGRSLRLSCAASGFTFSSYGMHWVRQAPGKGLEWVAFIRYDGSNKYYADSVKGRFTISRDNSKNTLYLQMNSLRAEDTAVYYCKTHGSHDNWGQGTMVTVSS VL: QSVLTQPPSVSGAPGQRVTISCSGSRSNIGSNTVKWYQQLPGTAPKLLIYGNDQRPSGVPDRFSGSKSGTSASLAITGLQAEDEADYYCQSYDRGTHPALLFGTGTKVTVL
